# In US6713273B2, “High expression and production of high specific activity recombinant S-adenosyl homocysteinase (SAHH) and improved assays for S-adenosylmethionine (SAM)” (priority 2000, dated 2004):
# B1: SAHH: Recombinant T. vaginalis S-adenosyl homocysteinase encoded by SEQ ID NO:1 (amino acid SEQ ID NO:7), expressed in E. coli (protein, listed as Homo sapiens)
# chain: MACKSPTGAPFEYRIADINLHVLGRKELTLAEKEMPGLMVLRERYSASKPLKGVRISGSLHMTVQTAVLIETLTALGADVRWASCNIFSTQDTAAAAIVVGPTGTPEKPAGIPVFAWKGETLPEYWENTYRALTWPDGQGPQQVVDDGGDATLLISKGFEFETAGAVPEPTEADNLEYRCVLATLKQVFNQDKNHWHTVAAGMNGVSEETTTGVHRLYQLEKEGKLLFPAINVNDAVTKSKFDNIYGCRHSLIDGINRASDVMIGGKTALVMGYGDVGKGCAQSLRGQGARVIITELDPICALQAAMEGYQVRRIEEVVKDVDIFVTCTGNCDIISVDMMAQMKDKAIVGNIGHFDNEIDTDGLMKYPGIKHIPIKPEYDMWEFPDGHAILLLAEGRLLNLGCATGHPSFVMSMSFTNQTLAQLDLYEKRGNLEKKVYTLPKHLDEEVARLHLGSLDVHLTKLTQKQADYINVPVEGPYKSDAYRY
# Columns and labels:
# [1] = SAHH activity measurement (SAH hydrolysis coupled to rHCYase, DBPDA readout); assay type: biochemical
# Experimental: Assay buffer: 20 mM potassium phosphate, pH 8.0, 1 mM DTT, and 1 mM EDTA.
# 2 mM S-adenosyl-L-homocysteine (SAH)
# L-homocysteine (various concentrations)
# 40 mM DBPDA, dissolved in 6 M HCl
# 40 mM potassium ferricyanide
# Mix well and incubate at 37° C. for 10 min. and read absorbance at 675 nm or fluorescence at EX665 nm/EM690 nm. 1 unit is defined as 1 μmole of S-adenosylhomocysteine hydrolated in 1 min. at 37° C. in the presence of excess rHCYase.
# [2] = Stability study of SAHH / His•SAHH; assay type: physicochemical; settings: 45° for three days; FIGS. 2 and 5
# From the text: FIG. 2 contains the results of a stability study of SAHH.
# FIG. 5 contains the results of a stability study of His•SAHH.
# The SAHH enzyme of the invention has favorable properties. For instance, the SAHH has a high specific activity of at least […]. Further, the cloned SAHH of the invention provides a high expression of 20% of total cell protein. Moreover, SAHH produced according to the method of the invention has high stability as illustrated in the attached FIGS. 2 and 5.
# The enzyme was formulated as follows: 20 mM potassium phosphate buffer, pH 7.6, 100 mM sodium chloride, 30% glycerol, 1 mM DTT, 1 mM NAD, and 1 mM EDTA.
molecule,measurement,setting,value
B1,specific activity,[1]; general statement on the SAHH of the invention,at least 1.5 U/ml
same,specific activity,"[1]; purified enzyme, 1 unit = 1 μmole SAH hydrolated in 1 min at 37° C. with excess rHCYase",1.64 units/mg protein
same,stability (activity loss),[2],without activity loss
